In one test the target is T1, apisimin (Apis mellifera, UniProt Q8ISL8).
T1 sequence (Q8ISL8 25-78): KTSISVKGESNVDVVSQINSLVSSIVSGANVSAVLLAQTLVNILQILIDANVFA
Kind of test: Dot blot assay of apisimin self binding versus insulin and bovine albumin (Example 1, FIG. 1). The settings on record: darker colour means greater binding. Here is the method: FIG. 1 illustrates the results of a dot blot assay to test the self binding properties of apisimin against two other proteins not know to be self binding being insulin and bovine albumin. 1=apisimin, 2=insulin, 3=bovine albumin. The darker the colour the greater the degree of binding;
An experiment was conducted to confirm the self-binding nature of apisimin versus other peptides being insulin and bovine albumin.

The next test relates to monocyte cell line. Description: TNF-α response of a monocyte cell culture after 4 hours of treatment (Examples 3, 5-8). Type of test: cell-based. The settings on record: 100 ng/ml dose. The method, then:
The immunostimulatory effect was then tested using a variety of samples. Prior to the trial a monocyte cell culture was produced in order to eliminate any natural variation errors. The monocyte culture was then stimulated using a variety of agents and TNF-α concentration measured after 4 hours of treatment with the various reagents.
LPS was used as a positive control being a known and strongly significant stimulant. Cells alone were used as a negative control.
The immunostimulatory effect was tested further using a variety of samples including royal jelly. Prior to the trial a monocyte cell culture was produced in order to eliminate any natural variation errors. The monocyte culture was then stimulated using a variety of agents and TNF-α concentration measured after 4 hours of treatment with the various reagents.
The immunostimulatory effect was tested further using a variety of honey derived AGP compounds and apisimin. […] The monocyte culture was then stimulated using a variety of agents and TNF-α concentration measured after 4 hours of treatment with the various reagents.
The immunostimulatory effect was tested further using a honey derived AGP compound, apisimin and Polymyxin B acting as an LPS inhibitor. […] The monocyte culture was then stimulated using a variety of agents and TNF-α concentration measured after 4 hours of treatment with the various reagents. […]

For “albumin: bovine albumin, comparison protein not known to be self binding”, the “self binding (dot blot colour)” value in the test with apisimin is recorded as “weak or not self binding”.

“insulin: comparison protein not known to be self binding”: in the test with apisimin, the “self binding (dot blot colour)” value was “weak or not self binding”.

lipopolysaccharide [LPS]: in the test with monocyte cell line, the TNF-α response result was “approximately 1700 μg/ml”.
